This data set has as its system 30S ribosomal subunit (activated, mRNA-programmed; ribonucleoprotein). Kind of data set: filter. To be noted: CMN buffer.

As for human ASLLys3(SUU), the Kd (in general, a measure of binding affinity in units of concentration) (s2U at position 34, poly(A)-programmed, also bound poly(AG)-programmed, 20 mM MgCl2) is 176 nM. Turning to native E. coli tRNALys(SUU), the Kd (native modifications incl. mnm5s2U34, poly(A)-programmed, 20 mM MgCl2, 100 mM NH4Cl, pH 7.2, 37 C then ice) turned out to be 70 nM. As for native yeast tRNAPhe(GmAA), the Kd (native modifications incl. Gm34, poly(U)-programmed, 20 mM MgCl2) turned out to be 103 nM. Substance yeast ASLPhe(GAA) yielded a Kd (poly(U)-programmed, 20 mM MgCl2) of 136 nM.
